In paper PMC12691639:

Target: His-K62-HA expressed in E. coli without the eukaryotic N-terminal signal sequence (Saccharomyces paradoxus)
Assay: denaturing SDS-PAGE and western blot (heat- and detergent-resistant oligomers); E. coli membrane fractions treated with urea before boiling with gel loading buffer; high molecular weight complex taken apart into discrete oligomers

His-K62-HA expressed in E. coli without the eukaryotic N-terminal signal sequence (natural protein)
stoichiometry N: > 9
